Data reported in article PMC4963475 (2016).
Non-standard residues stand in square brackets, D forms with d. No end group written: not given here. pT = C[C@@H](OP(=O)(O)O)[C@H](N)C(=O)O; Nle = CCCC[C@H](N)C(=O)O

B1: MELT16p peptide, ENHKND-NIe-DI-Tp-QSC-NIe-VEIDY-amide (peptide)
peptide: ENHKND[Nle]DI[pT]QSC[Nle]VEIDY-NH2
modifications: N-terminus assumed
SMILES: CCCC[C@H](NC(=O)[C@H](CC(=O)O)NC(=O)[C@H](CC(N)=O)NC(=O)[C@H](CCCCN)NC(=O)[C@H](Cc1c[nH]cn1)NC(=O)[C@H](CC(N)=O)NC(=O)[C@@H](N)CCC(=O)O)C(=O)N[C@@H](CC(=O)O)C(=O)N[C@H](C(=O)N[C@H](C(=O)N[C@@H](CCC(N)=O)C(=O)N[C@@H](CO)C(=O)N[C@@H](CS)C(=O)N[C@@H](CCCC)C(=O)N[C@H](C(=O)N[C@@H](CCC(=O)O)C(=O)N[C@H](C(=O)N[C@@H](CC(=O)O)C(=O)N[C@@H](Cc1ccc(O)cc1)C(N)=O)[C@@H](C)CC)C(C)C)[C@@H](C)OP(=O)(O)O)[C@@H](C)CC
B2: MELT12 peptide (unphosphorylated), Btn-PEG2-C-PEG2-EDDKND-Nle-DI-T-KSYTIEIN-amide (peptide)
peptide: EDDKNDMDITKSYTIEIN
modifications: N-terminal Btn-PEG2-C-PEG2 (biotin, PEG2, cysteine, PEG2); Nle (norleucine) at position 7 of the letters, written here as M; C-terminal amide
B3: MELT12p peptide (MDIT phosphorylated), Btn-PEG2-C-PEG2-EDDKND-Nle-DI-Tp-KSYTIEIN-amide (peptide)
peptide: EDDKNDMDITKSYTIEIN
modifications: N-terminal Btn-PEG2-C-PEG2 (biotin, PEG2, cysteine, PEG2); Nle (norleucine) at position 7 of the letters, written here as M; phosphothreonine (Tp) at position 10 of the letters (MDIT); C-terminal amide

Assays:
[1] = target: T1, BubR1/Bub3 complex (3×FLAG–BubR1 with untagged Bub3) (UniProt O60566 1-1050; O43684 1-328); assay: MST
[2] = target: Bub1(1–553)/Bub3 complex (3×FLAG–Bub1(1–553) with untagged Bub3) (UniProt O43683 1-553; O43684 1-328); assay: MST
[3] = target: T1, BubR1/Bub3 complex (3×FLAG–BubR1 with …); assay: MST; 0 mM NaCl
[4] = target: T1, BubR1/Bub3 complex (3×FLAG–BubR1 with …); assay: MST; 50 mM NaCl
[5] = target: T1, BubR1/Bub3 complex (3×FLAG–BubR1 with …); assay: MST; 150 mM NaCl
[6] = target: T1, BubR1/Bub3 complex (3×FLAG–BubR1 with …); assay: MST; 200 mM NaCl

Bub1(1–553)/Bub3 complex (3×FLAG–Bub1(1–553) with untagged Bub3), sequence (O43683 1-553, chain 1 of 2): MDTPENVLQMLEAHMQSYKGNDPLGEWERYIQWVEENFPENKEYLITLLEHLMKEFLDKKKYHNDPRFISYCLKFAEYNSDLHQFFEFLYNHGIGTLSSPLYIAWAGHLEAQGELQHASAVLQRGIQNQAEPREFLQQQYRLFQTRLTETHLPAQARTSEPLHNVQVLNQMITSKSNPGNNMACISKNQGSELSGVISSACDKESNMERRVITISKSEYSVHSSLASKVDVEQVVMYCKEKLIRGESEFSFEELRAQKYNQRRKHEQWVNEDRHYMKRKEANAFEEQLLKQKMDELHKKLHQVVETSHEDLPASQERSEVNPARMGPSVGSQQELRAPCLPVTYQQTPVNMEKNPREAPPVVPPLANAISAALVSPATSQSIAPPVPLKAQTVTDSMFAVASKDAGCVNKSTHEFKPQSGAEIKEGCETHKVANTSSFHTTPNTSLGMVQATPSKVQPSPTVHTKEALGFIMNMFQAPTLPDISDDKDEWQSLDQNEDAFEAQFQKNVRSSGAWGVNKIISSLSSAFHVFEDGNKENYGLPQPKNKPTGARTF
Bub1(1–553)/Bub3 complex (3×FLAG–Bub1(1–553) with untagged Bub3), sequence (O43684 whole entry, chain 2 of 2): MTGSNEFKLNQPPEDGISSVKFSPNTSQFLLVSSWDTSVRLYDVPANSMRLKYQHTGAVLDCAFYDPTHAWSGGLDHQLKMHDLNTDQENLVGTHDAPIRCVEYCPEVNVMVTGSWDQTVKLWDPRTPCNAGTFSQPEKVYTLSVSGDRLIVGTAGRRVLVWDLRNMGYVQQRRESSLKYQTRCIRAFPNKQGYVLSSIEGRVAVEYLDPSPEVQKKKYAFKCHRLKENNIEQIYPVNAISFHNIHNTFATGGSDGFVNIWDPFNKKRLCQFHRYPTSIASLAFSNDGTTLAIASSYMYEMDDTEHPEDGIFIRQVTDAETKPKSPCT
T1 sequence (O60566 whole entry, chain 1 of 2): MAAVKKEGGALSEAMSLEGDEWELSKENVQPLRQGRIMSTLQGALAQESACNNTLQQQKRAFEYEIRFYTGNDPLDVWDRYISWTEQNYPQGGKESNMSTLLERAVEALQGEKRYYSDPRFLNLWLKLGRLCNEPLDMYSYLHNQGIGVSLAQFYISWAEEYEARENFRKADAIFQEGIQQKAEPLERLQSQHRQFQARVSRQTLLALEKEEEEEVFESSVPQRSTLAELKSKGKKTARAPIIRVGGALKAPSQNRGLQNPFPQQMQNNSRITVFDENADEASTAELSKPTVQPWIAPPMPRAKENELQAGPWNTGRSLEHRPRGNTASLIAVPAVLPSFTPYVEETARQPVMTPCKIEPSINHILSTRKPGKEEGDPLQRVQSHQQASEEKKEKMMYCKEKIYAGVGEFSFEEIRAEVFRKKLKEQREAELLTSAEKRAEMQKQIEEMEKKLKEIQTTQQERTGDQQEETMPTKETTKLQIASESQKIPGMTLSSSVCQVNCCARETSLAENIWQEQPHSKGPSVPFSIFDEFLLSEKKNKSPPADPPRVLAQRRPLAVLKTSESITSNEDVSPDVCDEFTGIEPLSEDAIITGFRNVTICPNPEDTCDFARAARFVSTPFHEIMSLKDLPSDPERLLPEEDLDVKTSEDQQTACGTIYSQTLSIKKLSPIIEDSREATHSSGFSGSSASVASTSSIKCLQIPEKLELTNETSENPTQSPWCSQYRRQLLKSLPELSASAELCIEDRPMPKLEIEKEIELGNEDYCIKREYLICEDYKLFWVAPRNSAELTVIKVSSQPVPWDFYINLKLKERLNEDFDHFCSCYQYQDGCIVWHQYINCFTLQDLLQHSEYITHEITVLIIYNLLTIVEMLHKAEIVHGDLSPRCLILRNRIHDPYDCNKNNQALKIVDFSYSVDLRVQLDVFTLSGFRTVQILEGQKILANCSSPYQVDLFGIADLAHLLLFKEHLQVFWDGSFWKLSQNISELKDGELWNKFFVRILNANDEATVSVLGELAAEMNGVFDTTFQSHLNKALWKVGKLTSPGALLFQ
T1 sequence (O43684 whole entry, chain 2 of 2): as the sequence (O43684 whole entry, chain 2 of 2) above

Row | Binder | Kd [1] | Kd [2] | Kd [3] | Kd [4] | Kd [5] | Kd [6]
1 | B1 | 286 nM | 757 nM |  |  |  | 
2 | B2 | > 195000 nM | > 379000 nM |  |  |  | 
3 | B3 | 258 nM | 579 nM | 82 nM | 259 nM | 379 nM | 936 nM
